Assay results as given in patent US20160051652A1 (INTERNATIONAL INSTITUTE OF CANCER IMMUNOLOGY, published 2016).

T1: human HLA-A*0201 molecule (human, UniProt P04439 25-302 at identity 0.94))
T1 construct: whole, on cells; MHC class I molecule on the surface of T2-0201 cells; also called HLA-A0201 class I molecule
T1 MHC heavy: not shown


What was measured:
[1] = target: T1, human HLA-A*0201 molecule; experiment: MHC stabilization assay, T2-0201 cells, flow cytometry of surface HLA-A0201 (non-peptide 275.7)
Source text: (§1) Next, a binding ability to an HLA-A0201 molecule was actually analyzed by an MHC stabilization assay.

[2] = target: T1, human HLA-A*0201 molecule; experiment: binding assay (stabilization assay), T2-0201 cells, flow cytometry (non-peptide 84.50)
Source text: as §1

[3] = target: T1, human HLA-A*0201 molecule; experiment: binding assay (stabilization assay), T2-0201 cells, flow cytometry
Source text: as §1

[4] = target: T1, human HLA-A*0201 molecule; experiment: MHC stabilization assay, T2-0201 cells, flow cytometry of surface HLA-A0201
Source text: as §1

| MFI [1] | MIF [2] | Binder | other results |
| --- | --- | --- | --- |
| 828 | – | ILTDITKGV (Synthesized 9-residue peptide of eEF2; also called candidate peptide number 5) [eEF2661-669 peptide] | – |
| – | 339 | LLLDPIFKV (Modified-type peptide) [eEF2292-300 2L peptide] | – |
| – | 275 | LMLDPIFKL (Modified-type peptide) [eEF2292-300 2M9L peptide] | – |
| – | 319 | LLLDPIFKL (Modified-type peptide) [eEF2292-300 2L9L peptide] | – |
| – | 313 | LMLDPIFKV (Modified-type peptide) [eEF2292-300 2M peptide] | – |
| 781 | 312 | LILDPIFKV (Synthesized 9-residue peptide of eEF2; also called candidate peptide number 1) [eEF2292-300 peptide] | % MIF increase [3]: 269%; % MFI increase [4]: 183% |
| 449 | – | KLPRTFCQL (Synthesized 9-residue peptide of eEF2; also called candidate peptide number 7) [eEF2284-292 peptide] | – |
| 523 | – | YLNEIKDSV (Synthesized 9-residue peptide of eEF2; also called candidate peptide number 4) [eEF2671-679 peptide] | – |
| 438 | – | KLVEGLKRL (Synthesized 9-residue peptide of eEF2; also called candidate peptide number 3) [eEF2519-527 peptide] | – |
| 665 | – | RLMEPIYLV (Synthesized 9-residue peptide of eEF2; also called candidate peptide number 2) [eEF2739-747 peptide] | – |
| 448 | – | LMMYISKMV (Synthesized 9-residue peptide of eEF2; also called candidate peptide number 6) [eEF2394-402 peptide] | – |
